Results from patent US20160201097A1, “Materials and Methods of Producing 7-Carbon Monomers” (INVISTA North America S.á.r.l., priority 2014, published 2016).

B1: SEQ ID NO: 12: Vibrio fluvialis ω-transaminase, N-terminal HIS tagged (protein, listed as Vibrio fluvialis)
chain: MNKPQSWEARAETYSLYGFTDMPSLHQRGTVVVTHGEGPYIVDVNGRRYLDANSGLWNMVAGFDHKGLIDAAKAQYERFPGYHAFFGRMSDQTVMLSEKLVEVSPFDSGRVFYTNSGSEANDTMVKMLWFLHAAEGKPQKRKILTRWNAYHGVTAVSASMTGKPYNSVFGLPLPGFVHLTCPHYWRYGEEGETEEQFVARLARELEETIQREGADTIAGFFAEPVMGAGGVIPPAKGYFQAILPILRKYDIPVISDEVICGFGRTGNTWGCVTYDFTPDAIISSKNLTAGFFPMGAVILGPELSKRLETAIEAIEEFPHGFTASGHPVGCAIALKAIDVVMNEGLAENVRRLAPRFEERLKHIAERPNIGEYRGIGFMWALEAVKDKASKTPFDGNLSVSERIANTCTDLGLICRPLGQSVVLCPPFILTEAQMDEMFDKLEKALDKVFAEVA
modifications: N-terminal His tag
notes: Vibrio fluvialis ω-transaminase, N-terminal HIS tagged
B2: SEQ ID NO: 9: Pseudomonas syringae ω-transaminase, N-terminal HIS tagged (protein, listed as Pseudomonas syringae)
chain: MSANNPQTLEWQALSSEHHLAPFSDYKQLKEKGPRIITRAEGVYLWDSEGNKILDGMSGLWCVAIGYGREELADAASKQMRELPYYNLFFQTAHPPVLELAKAISDIAPEGMNHVFFTGSGSEGNDTMLRMVRHYWALKGQPNKKTIISRVNGYHGSTVAGASLGGMTYMHEQGDLPIPGVVHIPQPYWFGEGGDMTPDEFGIWAAEQLEKKILELGVENVGAFIAEPIQGAGGVIVPPDSYWPKIKEILSRYDILFAADEVICGFGRTSEWFGSDFYGLRPDMMTIAKGLTSGYVPMGGLIVRDEIVAVLNEGGDFNHGFTYSGHPVAAAVALENIRILREEKIVERVRSETAPYLQKRLRELSDHPLVGEVRGVGLLGAIELVKDKTTRERYTDKGAGMICRTFCFDNGLIMRAVGDTMIIAPPLVISFAQIDELVEKARTCLDLTLAVLQG
modifications: N-terminal His tag
notes: Pseudomonas syringae ω-transaminase, N-terminal HIS tagged

What was measured:
Type in all cases: biochemical
[1] = ω-transaminase activity: 7-aminoheptanol to 7-oxoheptanol (L-alanine formation by RP-HPLC); conditions: for acceptance of 7-aminoheptanol as substrate (conversion of pyruvate to L-alanine): cell free extract, 10 mM 7-aminoheptanol, 10 mM pyruvate, pH 7.5, 25° C., 4 h, against the empty vector control (FIG. 17); for acceptance of 7-oxoheptanol as substrate forming 7-aminoheptanol: concluded from the reversibility of the ω-transaminase activity (Example 1)
Description: A nucleotide sequence encoding an N-terminal His-tag was added to the Chromobacterium violaceum, Pseudomonas syringae and Rhodobacter sphaeroides nucleic acids encoding the ω-transaminases of SEQ ID NOs: 7, 9 and 10, respectively (see FIG. 6) such that N-terminal HIS tagged ω-transaminases could be produced. The modified genes were cloned into a pET21a expression vector under the T7 promoter. Each expression vector was transformed into a BL21[DE3] E. coli host. Each resulting recombinant E. coli strain were cultivated at 37° C. in a 250 mL shake flask culture containing 50 mL LB media and antibiotic selection pressure, with shaking at 230 rpm. Each culture was induced overnight at 16° C. using 1 mM IPTG.
(§1) The pellet from each induced shake flask culture was harvested via centrifugation. Each pellet was resuspended and lysed via sonication. The cell debris was separated from the supernatant via centrifugation and the cell free extract was used immediately in enzyme activity assays.
Enzyme activity assays in the reverse direction (i.e., 7-aminoheptanol to 7-oxoheptanol) were performed in a buffer composed of a final concentration of 50 mM HEPES buffer (pH=7.5), 10 mM 7-aminoheptanol, 10 mM pyruvate, and […] pyridoxyl 5′ phosphate. Each enzyme activity assay reaction was initiated by adding cell free extract of the ω-transaminase gene product or the empty vector control to the assay buffer containing the 7-aminoheptanol and then incubated at 25° C. for 4 h, with shaking at 250 rpm. The formation of L-alanine was quantified via RP-HPLC.

[2] = ω-transaminase activity, reverse direction: 7-aminoheptanoate to pimelate semialdehyde (L-alanine formation by RP-HPLC); conditions: cell free extract, 10 mM 7-aminoheptanoate, 10 mM pyruvate, pH 7.5, 25° C., 4 h; against the empty vector control (FIG. 13)
Description: (§2) A nucleotide sequence encoding an N-terminal His-tag was added to the nucleic acid sequences from Chromobacterium violaceum, Pseudomonas syringae, Rhodobacter sphaeroides, and Vibrio fluvialis encoding the ω-transaminases of SEQ ID NOs: 7, 9, 10 and 12, respectively (see FIG. 6) such that N-terminal HIS tagged ω-transaminases could be produced. Each of the resulting modified genes was cloned into a pET21a expression vector under control of the T7 promoter and each expression vector was transformed into a BL21[DE3] E. coli host. The resulting recombinant E. coli strains were cultivated at 37° C. in a 250 mL shake flask culture containing 50 mL LB media and antibiotic selection pressure, with shaking at 230 rpm. Each culture was induced overnight at 16° C. using 1 mM IPTG.
as §1
Enzyme activity assays in the reverse direction (i.e., 7-aminoheptanoate to pimelate semialdehyde) were performed in a buffer composed of a final concentration of 50 mM HEPES buffer (pH=7.5), 10 mM 7-aminoheptanoate, 10 mM pyruvate and 100 μM pyridoxyl 5′ phosphate. Each enzyme activity assay reaction was initiated by adding cell free extract of the ω-transaminase gene product or the empty vector control to the assay buffer containing the 7-aminoheptanoate and incubated at 25° C. for 4 h, with shaking at 250 rpm. The formation of L-alanine from pyruvate was quantified via RP-HPLC.

[3] = ω-transaminase activity, forward direction: pimelate semialdehyde to 7-aminoheptanoate (pyruvate formation by RP-HPLC); conditions: for acceptance of pimelate semialdehyde as substrate (conversion of L-alanine to pyruvate): cell free extract, 10 mM pimelate semialdehyde, 10 mM L-alanine, pH 7.5, 25° C., 4 h, against the empty vector control (FIG. 14); for reversibility of ω-transaminase activity: pimelate semialdehyde accepted, 7-aminoheptanoate synthesized: conclusion from reverse and forward assays of Example 1
Description: as §2, §1
Enzyme activity in the forward direction (i.e., pimelate semialdehyde to 7-aminoheptanoate) was confirmed for the transaminases of SEQ ID NO 9, SEQ ID NO 10 and SEQ ID NO 12. Enzyme activity assays were performed in a buffer composed of a final concentration of 50 mM HEPES buffer (pH=7.5), 10 mM pimelate semialdehyde, 10 mM L-alanine and 100 μM pyridoxyl 5′ phosphate. Each enzyme activity assay reaction was initiated by adding a cell free extract of the ω-transaminase gene product or the empty vector control to the assay buffer containing the pimelate semialdehyde and incubated at 25° C. for 4 h, with shaking at 250 rpm. The formation of pyruvate was quantified via RP-HPLC.

Molecule | acceptance of 7-aminoheptanol as substrate (conversion of pyruvate to L-alanine) [1] | acceptance of 7-oxoheptanol as substrate forming 7-aminoheptanol [1] | acceptance of 7-aminoheptanoate as substrate (conversion of pyruvate to L-alanine) [2] | acceptance of pimelate semialdehyde as substrate (conversion of L-alanine to pyruvate) [3] | reversibility of ω-transaminase activity: pimelate semialdehyde accepted, 7-aminoheptanoate synthesized [3]
SEQ ID NO: 10: Rhodobacter sphaeroides ω-transaminase, N-terminal HIS tagged | accepted 7-aminoheptanol as substrate | accept 7-oxoheptanol as substrate and form 7-aminoheptanol | accepted 7-aminoheptanoate as substrate | accepted pimelate semialdehyde as substrate | accepted pimelate semialdehyde as substrate and synthesized 7-aminoheptanoate as a reaction product
B1 | – | – | accepted 7-aminoheptanoate as substrate | accepted pimelate semialdehyde as substrate | accepted pimelate semialdehyde as substrate and synthesized 7-aminoheptanoate as a reaction product
B2 | accepted 7-aminoheptanol as substrate | accept 7-oxoheptanol as substrate and form 7-aminoheptanol | accepted 7-aminoheptanoate as substrate | accepted pimelate semialdehyde as substrate | accepted pimelate semialdehyde as substrate and synthesized 7-aminoheptanoate as a reaction product
